First the molecules themselves.
B1: scFv; the commonest letter at each place (parent)
chain 1: EVKLDETGGGLVQPGRPMKLSCVASGFTFSDYWMNWVRQSPEKGLEWVAQIRNKPYNYETYYSDSVKGRFTISRDDSKSSVYLQMNNLRVEDMGIYYCTGSYYGMDYWGQGTSVTVS
chain 2: DVVMTQTPLSLPVSLGDQASISCRSSQSLVHSNGNTYLRWYLQKPGQSPKVLIYKVSNRFSGVPDRFSGSGSGTDFTLKISRVEAEDLGVYFCSQSTHVPWTFGGGTKLEIK

The variants in series [1] derive from B1. Nature of the series: Kd (Tite-Seq). The note with it: with fluorescein; format: scFv 4-4-20, heavy + light.
Series [2] covers variants of B1. In words: yeast surface expression (ratio to wild type); higher = more expressed. The note with it: format: scFv 4-4-20, heavy + light.

Consider twelve variants from the FLAb antibody collection (doi:10.7554/elife.23156).

With chain 1 EVKLDETGGGLVQPGRPMKLSCVASGFTFWDYWMNWVRQSPEKGLEWVAQIRNKPYNYETYYSDSVKGRFTISRDDSKSSVYLQMNNLRVEDMGIYYCTGSYYGMDYWGQGTSVTVS chain 2 DVVMTQTPLSLPVSLGDQASISCRSSQSLVHSNGNTYLRWYLQKPGQSPKVLIYKVSNRFSGVPDRFSGSGSGTDFTLKISRVEAEDLGVYFCSQSTHVPWTFGGGTKLEIK [chain 1 S30W], the dissociation constant Kd in series [1] was 0.00215 µM. Moreover, in series [2], the yeast surface expression amounted to 0.701.
As for chain 1 EVKLDETGGGLVQPGRPMKLSCVASGFTFWVYWMNWVRQSPEKGLEWVAQIRNKPYNYETYYSDSVKGRFTISRDDSKSSVYLQMNNLRVEDMGIYYCTGSYYGMDYWGQGTSVTVS chain 2 DVVMTQTPLSLPVSLGDQASISCRSSQSLVHSNGNTYLRWYLQKPGQSPKVLIYKVSNRFSGVPDRFSGSGSGTDFTLKISRVEAEDLGVYFCSQSTHVPWTFGGGTKLEIK [chain 1 S30W D31V], the dissociation constant Kd in series [1] was not below 10 µM. For the same variant, in series [2], the yeast surface expression turned out to be 0.463.
In the case of chain 1 EVKLDETGGGLVQPGRPMKLSCVASGFTFWNYWMNWVRQSPEKGLEWVAQIRNKPYNYETYYSDSVKGRFTISRDDSKSSVYLQMNNLRVEDMGIYYCTGSYYGMDYWGQGTSVTVS chain 2 DVVMTQTPLSLPVSLGDQASISCRSSQSLVHSNGNTYLRWYLQKPGQSPKVLIYKVSNRFSGVPDRFSGSGSGTDFTLKISRVEAEDLGVYFCSQSTHVPWTFGGGTKLEIK [chain 1 S30W D31N], the Kd in series [1] is not above 0.000316 µM. Moreover, the yeast surface expression in series [2] was 0.866.
As for chain 1 EVKLDETGGGLVQPGRPMKLSCVASGFTFWDYWMIWVRQSPEKGLEWVAQIRNKPYNYETYYSDSVKGRFTISRDDSKSSVYLQMNNLRVEDMGIYYCTGSYYGMDYWGQGTSVTVS chain 2 DVVMTQTPLSLPVSLGDQASISCRSSQSLVHSNGNTYLRWYLQKPGQSPKVLIYKVSNRFSGVPDRFSGSGSGTDFTLKISRVEAEDLGVYFCSQSTHVPWTFGGGTKLEIK [chain 1 S30W N35I], the Kd in series [1] was not below 10 µM. Moreover, the yeast surface expression in series [2] was determined as 0.743.
For chain 1 EVKLDETGGGLVQPGRPMKLSCVASGFTFWDYWMVWVRQSPEKGLEWVAQIRNKPYNYETYYSDSVKGRFTISRDDSKSSVYLQMNNLRVEDMGIYYCTGSYYGMDYWGQGTSVTVS chain 2 DVVMTQTPLSLPVSLGDQASISCRSSQSLVHSNGNTYLRWYLQKPGQSPKVLIYKVSNRFSGVPDRFSGSGSGTDFTLKISRVEAEDLGVYFCSQSTHVPWTFGGGTKLEIK [chain 1 S30W N35V], in that order: not below 10 µM and 0.273.
On to chain 1 EVKLDETGGGLVQPGRPMKLSCVASGFTFWDCWMNWVRQSPEKGLEWVAQIRNKPYNYETYYSDSVKGRFTISRDDSKSSVYLQMNNLRVEDMGIYYCTGSYYGMDYWGQGTSVTVS chain 2 DVVMTQTPLSLPVSLGDQASISCRSSQSLVHSNGNTYLRWYLQKPGQSPKVLIYKVSNRFSGVPDRFSGSGSGTDFTLKISRVEAEDLGVYFCSQSTHVPWTFGGGTKLEIK [chain 1 S30W Y32C], for which, in series [1], the Kd turned out to be 5.66 µM. In series [2], the yeast surface expression was determined as 0.838.
Turning to chain 1 EVKLDETGGGLVQPGRPMKLSCVASGFTFWDYWMNDVRQSPEKGLEWVAQIRNKPYNYETYYSDSVKGRFTISRDDSKSSVYLQMNNLRVEDMGIYYCTGSYYGMDYWGQGTSVTVS chain 2 DVVMTQTPLSLPVSLGDQASISCRSSQSLVHSNGNTYLRWYLQKPGQSPKVLIYKVSNRFSGVPDRFSGSGSGTDFTLKISRVEAEDLGVYFCSQSTHVPWTFGGGTKLEIK [chain 1 S30W W36D], the Kd in series [1] is not below 10 µM. In addition, in series [2], the yeast surface expression turned out to be 0.104.
Turning to chain 1 EVKLDETGGGLVQPGRPMKLSCVASGFTFVDYWSNWVRQSPEKGLEWVAQIRNKPYNYETYYSDSVKGRFTISRDDSKSSVYLQMNNLRVEDMGIYYCTGSYYGMDYWGQGTSVTVS chain 2 DVVMTQTPLSLPVSLGDQASISCRSSQSLVHSNGNTYLRWYLQKPGQSPKVLIYKVSNRFSGVPDRFSGSGSGTDFTLKISRVEAEDLGVYFCSQSTHVPWTFGGGTKLEIK [chain 1 S30V M34S], in series [1], the Kd is not below 10 µM. Also, in series [2], the yeast surface expression worked out at 0.569.
As to chain 1 EVKLDETGGGLVQPGRPMKLSCVASGFTFVDYWHNWVRQSPEKGLEWVAQIRNKPYNYETYYSDSVKGRFTISRDDSKSSVYLQMNNLRVEDMGIYYCTGSYYGMDYWGQGTSVTVS chain 2 DVVMTQTPLSLPVSLGDQASISCRSSQSLVHSNGNTYLRWYLQKPGQSPKVLIYKVSNRFSGVPDRFSGSGSGTDFTLKISRVEAEDLGVYFCSQSTHVPWTFGGGTKLEIK [chain 1 S30V M34H], the Kd in series [1] is not below 10 µM. In series [2], the yeast surface expression stood at 0.497.
Take chain 1 EVKLDETGGGLVQPGRPMKLSCVASGFTFVDDWMNWVRQSPEKGLEWVAQIRNKPYNYETYYSDSVKGRFTISRDDSKSSVYLQMNNLRVEDMGIYYCTGSYYGMDYWGQGTSVTVS chain 2 DVVMTQTPLSLPVSLGDQASISCRSSQSLVHSNGNTYLRWYLQKPGQSPKVLIYKVSNRFSGVPDRFSGSGSGTDFTLKISRVEAEDLGVYFCSQSTHVPWTFGGGTKLEIK [chain 1 S30V Y32D]: the dissociation constant (Kd) in series [1] is not below 10 µM. Moreover, the yeast surface expression in series [2] was 0.745.
Regarding chain 1 EVKLDETGGGLVQPGRPMKLSCVASGFTFVDYAMNWVRQSPEKGLEWVAQIRNKPYNYETYYSDSVKGRFTISRDDSKSSVYLQMNNLRVEDMGIYYCTGSYYGMDYWGQGTSVTVS chain 2 DVVMTQTPLSLPVSLGDQASISCRSSQSLVHSNGNTYLRWYLQKPGQSPKVLIYKVSNRFSGVPDRFSGSGSGTDFTLKISRVEAEDLGVYFCSQSTHVPWTFGGGTKLEIK [chain 1 S30V W33A], in series [1], the Kd was not below 10 µM. Further, the yeast surface expression in series [2] came out at 0.748.
As to chain 1 EVKLDETGGGLVQPGRPMKLSCVASGFTFVVYWMNEVRQSPEKGLEWVAQIRNKPYNYETYYSDSVKGRFTISRDDSKSSVYLQMNNLRVEDMGIYYCTGSYYGMDYWGQGTSVTVS chain 2 DVVMTQTPLSLPVSLGDQASISCRSSQSLVHSNGNTYLRWYLQKPGQSPKVLIYKVSNRFSGVPDRFSGSGSGTDFTLKISRVEAEDLGVYFCSQSTHVPWTFGGGTKLEIK [chain 1 S30V D31V W36E], the Kd in series [1] was not below 10 µM. For the same variant, in series [2], the yeast surface expression worked out at 1.33.
